Measurements published in US20260258143A1 (published 2026).
Where a chain is given by its changes, count along the chain named. Like-named read-outs stand apart in the source and are kept apart here.

What was measured:
Assay in all cases: SPR
[1] = target: T1, human CD25-extracellular domain (CD25-ECD) (UniProt P01589 22-240)
T1 chain: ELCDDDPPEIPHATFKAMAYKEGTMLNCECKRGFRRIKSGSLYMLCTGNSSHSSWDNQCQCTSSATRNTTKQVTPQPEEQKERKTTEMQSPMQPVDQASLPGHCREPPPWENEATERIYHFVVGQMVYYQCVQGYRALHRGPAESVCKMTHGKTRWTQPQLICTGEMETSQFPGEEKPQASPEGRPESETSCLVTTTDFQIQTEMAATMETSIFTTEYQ

[2] = target: T1, human CD25-extracellular domain …
[3] = target: T1, human CD25-extracellular domain …
[4] = target: T1, human CD25-extracellular domain …
[5] = target: T1, human CD25-extracellular domain …
[6] = target: T1, human CD25-extracellular domain …
83B05Hu1_A = target: 83B05Hu1_A
cCD25 = target: cCD25
[7] = target: T1, human CD25-extracellular domain …
[8] = target: T1, human CD25-extracellular domain …
[9] = target: T1, human CD25-extracellular domain …
cynomolgus CD25 [10] = target: cynomolgus CD25
[11] = target: T1, human CD25-extracellular domain …
[12] = target: T1, human CD25-extracellular domain …
[13] = target: T1, human CD25-extracellular domain …
cynomolgus CD25 [14] = target: cynomolgus CD25; remark: listed apart in the source
[15] = target: T1, human CD25-extracellular domain …
[16] = target: T1, human CD25-extracellular domain …

B1: ODY-N2027Hu1 (antibody, V domains shown)
VH: EVQLLESGGGLVQPGGSLRLSCAASGRTFSSYGMGWFRQAPGKEREFVAAISQSGGRTRYADSVKGRFTISRDNAKNTVYLQMNSLRPEDTAVYYCAATNFLIATAISAYDYWGQGTQVTVSS
Kd [1]: 10 nM

B2: ODY-N1998Hu1 (antibody, V domains shown)
VH: EVQLVESGGGLVQPGGSLRLSCAASGRRFSTLIMGWYRQAPGKQRELVATIERGGTPTYADSVKGRFTISRDNAKNTVYLQMNSLRPEDTAVYYCKTLRYWGQGTQVTVSS
Kd [2]: 31 nM

B3: humanized anti-CD25 V-body 47D3 (VHH)
VHH: B1 VH with L20V, S31W, Y32N, T99S, N100D, I103L, A106T
Kd [3]: 1.6 nM
Kd [4]: 1.6 nM

B4: ODY-N1999Hu1 (antibody, V domains shown)
VH: B2 VH with R28K, G54D, G55D, P57T
Kd [2]: 13 nM

B5: ODY-N2022Hu1 (antibody, V domains shown)
VH: B1 VH with N100K, A106T
Kd [5]: 17 nM

B6: ODY-N1783Hu1 (antibody, V domains shown)
VH: EVQLLESGGGLAQPGGSLRLSCAASGFTFSNYAMSWARQAPGKGLEWVSGIYSDGSGTYYADSVKGRFTISRDNAKNTVYLQMNSLRPEDTAVYYCSKGARSGSYYPWDDVWGQGTQVTVSS
Kd [6]: 107 nM

B7: human CD25 (receptor)
chain: T1 chain
Kd (83B05Hu1_A): 76 nM

B8: 46A3 (VHH)
VHH: B6 VH with S97A, A100R, R101N, V111Y
Kd (cCD25): 34 nM

B9: ODY-N1978Hu1 (antibody, V domains shown)
VH: B2 VH with R28S, P57T, K96N, T97A, Y100D
Kd [7]: 26 nM

B10: ODY-N1974Hu1 (antibody, V domains shown)
VH: B2 VH with R28K, G35A, I51V, E52D, P57T, V78T, K96N, T97A, Y100N
Kd [7]: 20 nM

B11: ODY-48D11Hu1 (antibody, V domains shown)
VH: B6 VH with A12V, S97A, A100R, R101N, W108F, V111Y
Kd [6]: 102 nM

B12: ODY-N2016Hu1 (antibody, V domains shown)
VH: EVQLLESGGGLVQPGGSLRLSCAASGRTFADFGMGWFRQAPGKEREFVAAISRSGGRTRYADSVKGRFTISRDDAKNTVYLQMNSLRPEDTAVYYCAASYFLLAITISGYDYWGQGTQVTVSS
Kd [5]: 12 nM

B13: ODY-N1808Hu1 (antibody, V domains shown)
VH: B6 VH with A37V, S97A, K98T, A100K, R101H, V111Y
Kd [8]: 241 nM

B14: ODY-N1955Hu1 (antibody, V domains shown)
VH: B2 VH with R28S, G35A, K96N, T97A, R99G
Kd [9]: 13 nM

B15: ODY-N1769Hu1 (antibody, V domains shown)
VH: B6 VH with A37V, A100R, R101H, D110E, V111Y
Kd [6]: 49 nM

B16: ODY-N1812Hu1 (antibody, V domains shown)
VH: B6 VH with G55S, S97A, A100R, R101G, S104G, W108F, V111Y
Kd [8]: 149 nM

B17: ODY-83F07Hu1 (VHH)
VHH: EVQLLESGGGLVQPGGSLRLSCAASGFTLDYYAIGWFRQAPGKEREGVLSISSTDGRTYYADSVKGRFTISRDNPKNTVYLQLNSLRPEDTAVYYCAAKRLGPMVHQYSLEVLTPLFLDEYDYWGQGTQVTVSS
Kd (cynomolgus CD25 [10]): 97 nM
Kd [11]: 58 nM

B18: ODY-N1961Hu1 (antibody, V domains shown)
VH: B2 VH with R28S, G35A, P57T, I69A, K96N, T97A, R99G
Kd [9]: 11 nM

B19: ODY-48C10Hu1 (antibody, V domains shown)
VH: B6 VH with A37T, S97A, A100R, R101N, W108F, V111Y
Kd [6]: 66 nM

B20: ODY-N2025Hu1 (antibody, V domains shown)
VH: B1 VH with F101V, A106T
Kd [1]: 14 nM

B21: ODY-N2010Hu1 (antibody, V domains shown)
VH: B1 VH with A49V, Q53G, T99S, N100D, A106S
Kd [12]: 9.4 nM

B22: ODY-N2000Hu1 (antibody, V domains shown)
VH: B2 VH with R28K, G54D, G55D, P57T, K96T
Kd [2]: 14 nM

B23: ODY-N1810Hu1 (antibody, V domains shown)
VH: B6 VH with G55S, S97V, A100R, R101G, W108F, V111Y
Kd [8]: 62 nM

B24: ODY-N2017Hu1 (antibody, V domains shown)
VH: B1 VH with T105A, A106T
Kd [5]: 13 nM

B25: 83B05Hu1_L (antibody, V domains shown)
VH: B17 VHH with M104L, Q107R
Kd [13]: 61 nM

B26: ODY-46A3 (VHH)
VHH: B6 VH with S97A, A100R, R101N, V111Y
Kd (cynomolgus CD25 [14]): 34 nM

B27: ODY-N2008Hu1 (antibody, V domains shown)
VH: B12 VH with D31S, S54G, I105T
Kd [12]: 22 nM

B28: ODY-N2024Hu1 (antibody, V domains shown)
VH: B1 VH with A75V, A106T, Y110H
Kd [5]: 19 nM

B29: ODY-N2011Hu1 (antibody, V domains shown)
VH: B12 VH with D31S, R53Q, S54G, I105T
Kd [12]: 9.4 nM

B30: ODY-N2001Hu1 (antibody, V domains shown)
VH: B2 VH with R28K, G35A, E52D, G54D, P57T
Kd [2]: 18 nM

B31: ODY-N1813Hu1 (antibody, V domains shown)
VH: B6 VH with G55S, S97A, A100R, R101G, W108F, D109E, V111Y
Kd [15]: 50 nM

B32: ODY-N2003Hu1 (antibody, V domains shown)
VH: B2 VH with R28K, G35A, E52D, G54D, P57T, K96S
Kd [16]: 7.6 nM

B33: ODY-N1811Hu1 (antibody, V domains shown)
VH: B6 VH with G55S, S97A, A100R, R101G, W108L, V111Y
Kd [8]: 348 nM

B34: ODY-N2005Hu1 (antibody, V domains shown)
VH: B1 VH with A106T
Kd [12]: 13 nM

B35: ODY-N2026Hu1 (antibody, V domains shown)
VH: B1 VH with L102P, A106T
Kd [1]: 11 nM

B36: ODY-N1970Hu1 (antibody, V domains shown)
VH: B2 VH with R28S, P57T, K96N, T97A, R99L
Kd [9]: 12 nM

B37: ODY-N2002Hu1 (antibody, V domains shown)
VH: B2 VH with A24V, R28S, G35A, E52D, P57T
Kd [16]: 17 nM
